In patent US20160032279 (published 2016):
Read-outs that look alike come from different tables or passages of the source. No end group written: not given here.

Key:
[1] = target: T1, Streptavidin (Streptomyces avidinii, UniProt P22629); assay: FACS
[2] = target: T1, Streptavidin; assay: FACS; remark: listed apart in the source

T1 sequence (P22629 37-163): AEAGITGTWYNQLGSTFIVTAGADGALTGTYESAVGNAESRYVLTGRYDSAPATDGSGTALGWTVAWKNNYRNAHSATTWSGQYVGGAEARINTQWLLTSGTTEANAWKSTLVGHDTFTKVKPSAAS

B1: SA-1 (peptide)
chain: RLEICQNVCYYLGTL
modifications: cysteine pairing not given here; also: phycoerythrin conjugate
Kd [1]: 10 nM

B2: SA-2 (peptide)
chain: ICSYVMYTTCFLRVY
modifications: cysteine pairing not given here; also: phycoerythrin conjugate
Kd [1]: 8 nM

B3: SA-3 (peptide)
chain: TVLICMNICWTGETQ
modifications: cysteine pairing not given here; also: phycoerythrin conjugate
Kd [2]: 4 nM
Kd [1]: 4 nM
